Laboratory results: the Human Domainome abundance scans (Beltran et al. 2025)
± gives the uncertainty stated by the source.

B1: E3 ubiquitin-protein ligase Midline-1, residues 172 to 214; numbered along this chain, O15344 (parent)
chain: GLMCLEHEDEKVNMYCVTDDQLICALCKLVGRHRDHQVAALSE

Variants of: B1
Assay: abundance fitness (aPCA) (normalised: wild type 0, dead -1); higher = more abundant; growth selection in yeast, the domain comes from the species named
Settings: Homo sapiens

Abundance fitness: each site, then its substitutions
A25: G 0.105 ± 0.046; Q 0.087 ± 0.067; H 0.188 ± 0.093; T -0.16 ± 0.13; V -0.303 ± 0.095; W -0.181 ± 0.1; E -0.018 ± 0.055
V17: Y -0.071 ± 0.16; I 0.235 ± 0.12; K 0.444 ± 0.065; L -0.094 ± 0.061; R 0.176 ± 0.048; E 0.135 ± 0.06
S42: Q -0.049 ± 0.094; M -0.262 ± 0.082; R -0.127 ± 0.063; L -0.342 ± 0.082; N 0.142 ± 0.092; T 0.064 ± 0.075
M14: A 0.043 ± 0.048; W -0.055 ± 0.056; R 0.033 ± 0.055; V -0.386 ± 0.064; L -0.022 ± 0.055; H -0.112 ± 0.3; N -0.028 ± 0.18; C 0.137 ± 0.11; Q 0.242 ± 0.066
E6: Q -0.036 ± 0.09; A -0.085 ± 0.075; H 0.063 ± 0.21; Y -0.276 ± 0.085; L -0.14 ± 0.063; W -0.374 ± 0.083; G -0.438 ± 0.055; I 0.126 ± 0.095; T 0.001 ± 0.15; S 0.039 ± 0.064; N -0.226 ± 0.18
Q37: P -0.015 ± 0.08; V -0.208 ± 0.059; S 0.047 ± 0.063; T -0.026 ± 0.073; H -0.148 ± 0.097; E 0.023 ± 0.066; A -0.006 ± 0.062
T18: Y -0.482 ± 0.23; W -0.532 ± 0.094; K -0.019 ± 0.063; V -0.077 ± 0.064; L -0.32 ± 0.066; Q -0.073 ± 0.1; M -0.394 ± 0.15; D -0.152 ± 0.079
Y15: L 0.014 ± 0.063; A 0.045 ± 0.051; Q 0.315 ± 0.075; V -0.014 ± 0.059; H 0.151 ± 0.14; G -0.015 ± 0.046; W -0.089 ± 0.095; M -0.094 ± 0.093
C4: W -0.439 ± 0.12; T -0.078 ± 0.13; Y -0.594 ± 0.2; H -0.221 ± 0.24; G -0.713 ± 0.083; R -0.647 ± 0.086
D19: E -0.012 ± 0.052; N -0.095 ± 0.22; K -0.759 ± 0.18; P -0.723 ± 0.16; V -1.02 ± 0.14; G -0.72 ± 0.087; W -0.779 ± 0.1; F -0.218 ± 0.27
L22: T 0.204 ± 0.075; M 0.004 ± 0.11; W 0.024 ± 0.079; K 0.33 ± 0.076; E 0.377 ± 0.053; P 0.428 ± 0.094
E43: Q -0.317 ± 0.12; A -0.004 ± 0.064; S 0.058 ± 0.1; L -0.241 ± 0.12; W -0.175 ± 0.15
V38: R -0.217 ± 0.059; L -0.035 ± 0.068; W -0.018 ± 0.081; G -0.134 ± 0.051; F 0.124 ± 0.19; Q -0.125 ± 0.09; I -0.217 ± 0.11
E8: R 0.116 ± 0.045; W -0.348 ± 0.076; V 0.072 ± 0.053; A 0.179 ± 0.054; T 0.398 ± 0.12
C16: M -0.674 ± 0.43; K -0.298 ± 0.18; I -0.127 ± 0.24; Y -0.624 ± 0.28; R -0.469 ± 0.062; P -0.289 ± 0.065; S -0.14 ± 0.11; V -0.725 ± 0.096; T -0.351 ± 0.1; W -1.19 ± 0.21; N -0.183 ± 0.14
K11: M 0.096 ± 0.096; E 0.033 ± 0.07; G -0.186 ± 0.051; S -0.07 ± 0.063; I 0.284 ± 0.21; H 0.19 ± 0.41; V -0.259 ± 0.059; N 0.027 ± 0.14; A -0.107 ± 0.054
K28: E 0.007 ± 0.062; M -0.114 ± 0.07; C -0.148 ± 0.074; A 0.083 ± 0.059; T 0.063 ± 0.06; P 0 ± 0.074; S 0.013 ± 0.069; N -0.042 ± 0.085
C27: M -1.02 ± 0.2; E -0.741 ± 0.13; H -0.481 ± 0.31; L -0.883 ± 0.12; S -0.807 ± 0.11; Q -0.913 ± 0.2; P -0.166 ± 0.17
I23: G -0.19 ± 0.085; C -0.081 ± 0.26; S -0.369 ± 0.23; K -0.312 ± 0.098; D -0.124 ± 0.16; L -0.019 ± 0.26; M 0.011 ± 0.089
D35: N -0.114 ± 0.3; K -0.105 ± 0.068; P -0.299 ± 0.15; S -0.189 ± 0.065; L -0.172 ± 0.062; C -0.142 ± 0.12; Y -0.33 ± 0.13; M -0.299 ± 0.079
L29: Y -0.085 ± 0.21; N 0.072 ± 0.093; R 0.227 ± 0.047; S 0.279 ± 0.055; C 0.025 ± 0.081; H 0.19 ± 0.061; K 0.182 ± 0.073; Q -0.016 ± 0.091; T 0.175 ± 0.059
H36: P -0.637 ± 0.15; E -0.546 ± 0.07; A -0.445 ± 0.065; I -0.488 ± 0.19; T -0.689 ± 0.13; C -0.056 ± 0.077; V -0.588 ± 0.073; S -0.533 ± 0.08; K 0.034 ± 0.47; W -1.01 ± 0.16
C24: P -0.977 ± 0.18; Q -0.792 ± 0.15; E -1.05 ± 0.14; G -0.814 ± 0.082; L -0.868 ± 0.093; W -0.978 ± 0.12; N -0.656 ± 0.21; A -0.799 ± 0.13
E10: C -0.062 ± 0.074; F -0.136 ± 0.16; H 0.066 ± 0.16; M -0.029 ± 0.097; D -0.164 ± 0.12; N 0.093 ± 0.21; P -0.498 ± 0.19; R -0.046 ± 0.049; T -0.204 ± 0.15
G1: S -0.184 ± 0.11; K 0.061 ± 0.29; T -0.235 ± 0.27
M3: F 0.111 ± 0.13; V -0.144 ± 0.075; N 0.019 ± 0.16; C -0.21 ± 0.21; W -0.333 ± 0.086; K -0.006 ± 0.083; Y -0.229 ± 0.26; P -0.309 ± 0.093
A40: H -0.141 ± 0.24; L -0.158 ± 0.063; Y -0.572 ± 0.26; S 0.065 ± 0.07; G 0.046 ± 0.047; I -0.789 ± 0.29
L2: T 0.51 ± 0.069; Q 0.063 ± 0.11; I 0.257 ± 0.12; H 0.147 ± 0.085; A 0.483 ± 0.058; F -0.298 ± 0.33; K 0.795 ± 0.1; V 0.233 ± 0.061; C 0.19 ± 0.092; E 0.611 ± 0.056
A39: T 0.181 ± 0.068; D 0.088 ± 0.064; E 0.016 ± 0.057; V 0.027 ± 0.058; H -0.024 ± 0.098; N 0.401 ± 0.1; P -0.491 ± 0.11; K 0.059 ± 0.081
H33: V -0.882 ± 0.086; A -0.591 ± 0.076; N -0.42 ± 0.14; T -0.538 ± 0.12; S -0.718 ± 0.12
N13: C -0.13 ± 0.1; E -0.084 ± 0.063; D -0.071 ± 0.092; Q 0.005 ± 0.078; G -0.022 ± 0.045
D9: L 0.084 ± 0.054; N 0.636 ± 0.22; F 0.173 ± 0.11; T -0.24 ± 0.12; V -0.086 ± 0.049; A -0.418 ± 0.067; W -0.052 ± 0.055; G 0.031 ± 0.045; M 0.246 ± 0.072; K -0.38 ± 0.1; Q 0.116 ± 0.065; Y -0.113 ± 0.22; S 0.02 ± 0.059
R34: G 0.048 ± 0.048; C 0.033 ± 0.068; L -0.376 ± 0.084; P -0.24 ± 0.085; Q 0.088 ± 0.099; W -0.542 ± 0.087; I 0 ± 0.092; K 0.376 ± 0.1
R32: P -0.022 ± 0.073; L -0.058 ± 0.067; E 0.149 ± 0.064; D -0.072 ± 0.08; H -0.152 ± 0.14; I -0.18 ± 0.21; N 0.287 ± 0.23; K 0.116 ± 0.059; F -0.593 ± 0.36
L41: F -0.132 ± 0.1; W 0.001 ± 0.058; C 0.176 ± 0.09; I -0.082 ± 0.09; A 0.072 ± 0.052; G 0.051 ± 0.048; T 0.12 ± 0.057; Q 0.136 ± 0.058; K 0.161 ± 0.058; Y -0.467 ± 0.2
Q21: R 0.031 ± 0.051; D -0.099 ± 0.11; L -0.154 ± 0.07; C -0.174 ± 0.074; F -0.07 ± 0.28; S 0.042 ± 0.074; Y -0.171 ± 0.14; W -0.682 ± 0.092; P -0.524 ± 0.14; A 0.003 ± 0.058
V30: A 0.15 ± 0.058; D 0.145 ± 0.058; Y -0.049 ± 0.1; F -0.381 ± 0.27; R -0.055 ± 0.051; N 0.147 ± 0.09; I -0.131 ± 0.12; E 0.138 ± 0.064
L5: C 0.055 ± 0.11; D 0.039 ± 0.12; Q -0.155 ± 0.11; H -0.037 ± 0.11; I -0.435 ± 0.41; K 0.142 ± 0.085; A 0.023 ± 0.051; P 0.058 ± 0.069
G31: H 0.057 ± 0.17; D 0.111 ± 0.13; I -0.887 ± 0.32; K -0.065 ± 0.12; C -0.121 ± 0.084; W -0.803 ± 0.093; M -0.514 ± 0.087; R -0.299 ± 0.057
H7: Q -0.551 ± 0.12; G -0.5 ± 0.057; Y -0.637 ± 0.13; W -0.89 ± 0.13; E -0.433 ± 0.081; R -0.646 ± 0.07; M -0.66 ± 0.12; C -0.466 ± 0.14; T -0.492 ± 0.15
V12: F 0.301 ± 0.3; R 0.024 ± 0.059; P -0.51 ± 0.34; M -0.042 ± 0.12; A -0.208 ± 0.09; W -0.251 ± 0.095; I 0.093 ± 0.17
D20: L -0.404 ± 0.069; T -0.232 ± 0.087; P -0.573 ± 0.1; Y -0.464 ± 0.15; M -0.067 ± 0.27; S -0.038 ± 0.064; Q 0.099 ± 0.064
L26: Y -0.041 ± 0.11; D 0.089 ± 0.075; V 0.027 ± 0.052; K 0.193 ± 0.084; R 0.272 ± 0.053; C 0.138 ± 0.066; M 0.031 ± 0.078
